Earlier results in paper PMC5654615.
pKd: −log10 of the molar value. Where two headings read alike, the source gives them in different places.

How the values were obtained:
[1] = biological target: TLR4/MD2 complex (Homo sapiens) (UniProt O00206); assay: SPR
TLR4 (Homo sapiens) = TLR4 (Homo sapiens) (UniProt O00206); assay: SPR
MD2 (Homo sapiens) = MD2 (Homo sapiens) (UniProt Q9Y6Y9); assay: SPR
[2] = biological target: TLR4/MD2 complex (Homo sapiens) (UniProt O00206)

Sequence of UniProt Q9Y6Y9 (Q9Y6Y9 19-160): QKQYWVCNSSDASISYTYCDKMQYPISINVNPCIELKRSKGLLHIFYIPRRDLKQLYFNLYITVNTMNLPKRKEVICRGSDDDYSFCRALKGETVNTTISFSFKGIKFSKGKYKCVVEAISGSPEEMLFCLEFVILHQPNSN

| pKd [1] | pKd (TLR4 (Homo sapiens)) | pKd (MD2 (Homo sapiens)) | pKd [2] | Substance |
| --- | --- | --- | --- | --- |
| 6.62 | 6.21 | 6.52 | – | CIRP (from UniProt Q14011) |
| – | – | – | 5.82 | HMGB1 (from UniProt P09429) |
